The values that follow come from US20200332006A1 (ULTRAHUMAN NINE, published 2020).

Experiment [1] concerns the target T1, human LSAMP, expressed on HEK293 cells (human, UniProt Q13449 29-315).
T1 construct: also called BC033803
T1 sequence: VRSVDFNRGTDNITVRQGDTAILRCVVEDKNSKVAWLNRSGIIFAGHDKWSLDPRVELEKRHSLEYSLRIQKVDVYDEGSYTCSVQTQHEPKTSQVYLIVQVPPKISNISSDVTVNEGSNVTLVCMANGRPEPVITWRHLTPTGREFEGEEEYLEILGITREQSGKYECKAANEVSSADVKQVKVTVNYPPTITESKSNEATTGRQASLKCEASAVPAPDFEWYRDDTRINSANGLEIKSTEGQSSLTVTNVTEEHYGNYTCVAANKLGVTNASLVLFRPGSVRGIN
In words: flow cytometry on transfected HEK293 cells, no primary antibody.

In experiment [2] the target is T2, human BTN2A1, expressed on HEK293 cells (human, UniProt Q7KYR7 29-527).
T2 construct: also called NM_007049
T2 sequence: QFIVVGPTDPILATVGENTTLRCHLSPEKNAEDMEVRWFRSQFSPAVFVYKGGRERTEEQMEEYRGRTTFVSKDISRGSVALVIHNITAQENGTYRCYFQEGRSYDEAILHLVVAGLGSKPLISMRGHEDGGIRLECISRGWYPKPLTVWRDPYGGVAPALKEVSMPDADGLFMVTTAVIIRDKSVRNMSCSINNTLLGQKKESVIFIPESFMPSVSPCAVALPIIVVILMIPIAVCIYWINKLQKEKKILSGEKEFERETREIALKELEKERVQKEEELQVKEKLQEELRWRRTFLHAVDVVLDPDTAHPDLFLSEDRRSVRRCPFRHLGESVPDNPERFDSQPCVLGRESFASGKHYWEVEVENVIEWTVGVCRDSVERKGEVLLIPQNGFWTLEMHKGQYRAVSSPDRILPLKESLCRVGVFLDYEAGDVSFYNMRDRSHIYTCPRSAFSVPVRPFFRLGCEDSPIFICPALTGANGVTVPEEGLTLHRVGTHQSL
Described as above.

Experiment [3] deals with T3, human CD20, expressed on HEK293 cells (human, UniProt P11836 1-297).
T3 construct: whole, on cells
T3 sequence (looked up): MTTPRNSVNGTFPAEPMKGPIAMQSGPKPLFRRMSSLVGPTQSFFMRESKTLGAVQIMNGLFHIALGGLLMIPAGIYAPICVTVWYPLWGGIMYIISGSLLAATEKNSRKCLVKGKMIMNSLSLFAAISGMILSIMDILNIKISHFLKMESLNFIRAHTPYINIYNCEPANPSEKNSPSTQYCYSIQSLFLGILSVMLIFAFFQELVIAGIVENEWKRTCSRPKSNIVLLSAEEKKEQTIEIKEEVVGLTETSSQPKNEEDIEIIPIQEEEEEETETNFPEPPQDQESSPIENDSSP
The description is as above.

The target in experiment [4] is T1, human LSAMP, expressed on HEK293 cells. In words: flow cytometry on transfected HEK293 cells, 2 ug/ml IgG. The method, then:
(§1) FIG. 11. […] Analyses of binding specificity were performed on HEK293 cells transiently transfected with plasmids encoding either human PD1, human BTN2A1, human LSAMP, human CD20 or ZS green marker only. Each antibody was used in staining at […] concentration and histograms are indicated per antibody in this figure.
(§2) Human cell membrane receptor proteome arrays were performed at Retrogenix Ltd. Primary screens: 2 μg/ml of each antibody was screened for binding against fixed HEK293 cells/slides expressing 5528 human plasma membrane and tethered secreted proteins individually. […] Antibody binding was detected using AF647 fluorescent secondary anti-human IgG1 antibody. Primary hits (duplicate spots) were identified by analysing fluorescence (AF647 and ZsGreen1) on ImageQuant. Confirmation/specificity screens: Expression vectors encoding ZsGreen1 only, or ZsGreen1 and CD20, PD1, BTN2A1, or LSAMP were transfected into human HEK293 cells. […] Cells were washed, and incubated with the same AF647 anti-human IgG Fc detection antibody as used in the cell microarray screens. Cells were again washed, and analysed by flow cytometry using an Accuri flow cytometer (BD). A 7AAD live/dead dye was used to exclude dead cells, and ZsGreen1-positive cells (i.e. transfected cells) were selected for analyses.
A general note: A flow cytometer gives signals particle by particle.

Experiment [5] concerns the target T2, human BTN2A1, expressed on HEK293 cells. Described as above. As for the experimental part: as §1, §2
Experiment [6] addresses T3, human CD20, expressed on HEK293 cells. Described as above. The method, then: as §1, §2
Experiment [7] concerns the target T4, biotinylated human PD1-His/AviTag (human, UniProt Q15116 25-170, biotinylated (AviTag)).
T4 construct: also called biotinylated monomeric human PD1
In words: AlphaScreen epitope competition; competitor mu317 IgG on biotinylated monomeric human PD1. The method, then:
(§3) The AlphaScreen assay (Perkin Elmer) was performed in a 25 μl final volume in 384-well white microtiter plates (Greiner). The reaction buffer contained 1×PBS pH 7.3 (Oxoid, Cat. nr. BR0014G) and 0.05% (v/v) Tween® 20 (Sigma, Cat. nr. P9416). Purified IgG samples were titrated in three fold serial dilutions starting at 500 nM final concentration and incubated with biotinylated human PD1-His/AviTag at 0.6 nM final concentration for 20 minutes at room temperature. […] Followed by addition of the Streptavidin Donor beads at 20 μg/ml (final concentration) and incubation for 30 minutes at room temperature. The emission of light was measured in the EnVision multilabel plate reader (Perkin Elmer) and analysed using the EnVision manager software. Values were reported as Counts Per Second (CPS) and corrected for crosstalk.

For experiment [8], the target named is T2, human BTN2A1, expressed on HEK293 cells. In words: flow cytometry on live transfected HEK293 cells. As for the experimental part: as §1, §2
For experiment [9], the target named is T5, human PD1 human Fc tagged recombinant protein (human, UniProt Q15116 25-170).
T5 construct: also called human PD1-Fc; huPD1
In words: direct titration ELISA, IgG1null on coated PD1-Fc. As for the experimental part:
(§4) Binding and cross-reactivity of the lead panel to the recombinant proteins was initially assessed by binding ELISA. The human PD1 human Fc tagged recombinant protein and the cynomolgus monkey PD1 human Fc tagged recombinant protein were coated to the surface of MaxiSorp™ flat-bottom 96 well plate at 1 μg/ml. The Fab samples were applied at 1:5 dilution in 1% Skimmed Milk/1×PBS; 1 h at RT; 100 μl/well. IgGs were titrated in two fold serial dilutions starting from 500 nM to 0.98 nM and allowed to bind to the coated antigens. The Fabs were detected using mouse anti-c-myc antibody followed by donkey anti-mouse IgG conjugated to horseradish peroxidase. The IgGs were detected using the mouse anti-human IgG conjugated to horseradish peroxidase. Binding signals were visualized with 3,3′,5,5′-Tetramethylbenzidine Substrate Solution (TMB) and the absorbance measured at 450 nm.
In general terms: In an ELISA, binding on a coated surface is turned into a signal by an enzyme label.

Experiment [10] has as its target T6, cynomolgus monkey PD1 human Fc tagged recombinant protein (cynomolgus monkey, UniProt Q15116 25-170 (human entry), limits assumed).
T6 construct: also called cyno PD1-Fc; cyPD1
T6 chain: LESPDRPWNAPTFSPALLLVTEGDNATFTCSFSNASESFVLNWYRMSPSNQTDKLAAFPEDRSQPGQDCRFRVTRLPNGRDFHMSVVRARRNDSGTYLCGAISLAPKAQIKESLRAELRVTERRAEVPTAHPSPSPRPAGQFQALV
In words: direct titration ELISA, IgG1null on coated PD1-Fc. The method, then: as §4

The target in experiment [11] is T6, cynomolgus monkey PD1 human Fc tagged …. In words: direct titration ELISA, IgG1null on coated PD1-Fc (reference antibody). As for the experimental part: as §4
For experiment [12], the target named is T4, biotinylated human PD1-His/AviTag. In words: AlphaScreen epitope competition; titrated IgG against mu317 IgG (parental IgG, 0.3 nM) on biotinylated monomeric human PD1. The method, then: as §3
Background: Alpha assays give light when donor and acceptor beads are brought close together.

T4 sequence (Q15116 25-170 limits assumed): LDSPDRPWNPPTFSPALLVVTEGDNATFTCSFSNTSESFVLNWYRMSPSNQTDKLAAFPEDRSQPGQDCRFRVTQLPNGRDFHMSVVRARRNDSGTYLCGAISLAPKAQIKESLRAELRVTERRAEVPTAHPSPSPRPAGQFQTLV
T5 sequence (Q15116 25-170 limits assumed): as above

“AF647 anti-human IgG Fc detection antibody alone”: the fold fluorescence change versus mock (ZSgreen only) cells in [1] was 1.5 fold; in [2] it was 1.1 fold; in experiment [3], 0.9 fold.

B1: Antibody MH8, IgG1null format (antibody, V domains shown)
VH: EVQLVESGGGLVQPGGSLRLSCAASGFTFSSYGMSWVRQAPGKGLEWVANIWQDGSTKYVDSVKGRFTISRDNAKNSLYLQMNSLRAEDTAVYYCARAYGNYWYIDRWGQGTTVTVSS
VL: DIVMTQSPDSLAVSLGERATINCKSSQSVTNDVAWYQQKPGQPPKLLINYAYHRFTGVPDRFSGSGYGTDFTLTISSLQAEDVAVYYCHQAYSTPYTFGQGTKLEIK
notes: Tested as IgG1null (human IgG1 L234A, L235A, G237A) with human Ckappa; also called clone MH8
For B1, the “fold fluorescence change versus mock (ZSgreen only) cells” value (shortened to “fold fluorescence change versus mock”) worked out at 7.1 fold in [4], 1.1 fold in [5] and 0.9 fold in experiment [6]. Moreover, in experiment [7], the IC50 (usually the concentration that gives 50% inhibition) amounted to 390 pM. The binding result in experiment [8] is given as “no binding (tested: 2 ug/ml)”.

B2: Antibody 09C06, IgG1null format (antibody, V domains shown)
VH: EVQLVESGGGLVQPGGSLRLSCAASGFSFSSYGMHWVRQAPGKGLEWVANIWQDGSTNYVDSVKGRFTISRDNAKNSLYLQMNSLRAEDTAVYYCARAYGNYWYIDRWGQGTTVTVSS
VL: DIVMTQSPDSLAVSLGERATINCKSSQSVSNDVAWYQQKPGQPPKLLINYASHRFTGVPDRFSGSGYGTDFTLTISSLQAEDVAVYYCHQAYSTPYTFGQGTKLEIK
notes: Library-derived clone; Tested as IgG1null (human IgG1 L234A, L235A, G237A) with human Ckappa; also called clone 09C06
Regarding B2, the binding result in experiment [9] and in experiment [10] was “binds” each time.

B3: Antibody MH12, IgG1null format (antibody, V domains shown)
VH: EVQLVESGGGLVQPGGSLRLSCAASGFTFSSYGMSWVRQAPGKGLEWVANIWQDGSEKYVDSVKGRFTISRDNAKNSLYLQMNSLRAEDTAVYYCARAYGNYWYIDRWGQGTTVTVSS
VL: DIVMTQSPDSLAVSLGERATINCKSSQSVTNDVAWYQQKPGQPPKLLINYAYHRFTGVPDRFSGSGYGTDFTLTISSLQAEDVAVYYCHQAYSTPYTFGQGTKLEIK
notes: Tested as IgG1null (human IgG1 L234A, L235A, G237A) with human Ckappa; also called clone MH12
As for B3, the “fold fluorescence change versus mock” value in [4] worked out at 4.1 fold; in experiment [5] it was 1.3 fold; in experiment [6], 1.1 fold. The same molecule showed an IC50 in [7] of 624 pM.

B4: Antibody MH4, IgG1null format (antibody, V domains shown)
VH: EVQLVESGGGLVQPGGSLRLSCAASGFSLSSYGMSWVRQAPGKGLEWVAVIWQDGSTNYVDSVKGRFTISRDNAKNSLYLQMNSLRAEDTAVYYCARAYGNYWYIDRWGQGTTVTVSS
VL: DIVMTQSPDSLAVSLGERATINCKSSQSVTNDVAWYQQKPGQPPKLLINYAYHRFTGVPDRFSGSGYGTDFTLTISSLQAEDVAVYYCHQAYSTPYTFGQGTKLEIK
notes: Tested as IgG1null (human IgG1 L234A, L235A, G237A) with human Ckappa; also called clone MH4
Turning to B4, the “fold fluorescence change versus mock” value in experiment [4] was 1.9 fold; in [5], 1.2 fold; in [6] it was 1.1 fold. In experiment [7], this molecule gave a concentration for half-maximal inhibition (IC50) of 630 pM. Also, in [8], the binding result is “no binding (tested: 2 ug/ml)”.

B5: Mu317 murine anti-PD1 v-domains, produced in human IgG1null format (antibody, V domains shown)
VH: QVQLKESGPGLVAPSKNLSITCTVSGFSLTSYGVHWIRQPPGKGLEWLGVIWAGGSTNYNSALMSRLSISKDNSRSQVFLRMNSLQTDDTAMYYCARAYGNYWYIDVWGAGTTVTVSS
VL: DIVMTQTPKFLLVSAGDRVTITCKASQSVSNDVAWYQQKPGQSPKLLINYAFHRFTGVPDRFTGSGYGTDFIFTISTVQAEDLAVYFCHQAYSSPYTFGGGTKLEMK
notes: Tested as IgG1null (human IgG1 with L234A, L235A, G237A) with human Ckappa; also called Mu317 IgG1; parental IgG
Regarding B5, the binding result in experiment [11] is reported as “binds”. In experiment [12], the IC50 came to 370 pM.
